The target in experiment [1] is T1, human IL-2 (recombinant IL-2, Humanzyme) (human, UniProt P60568 21-153).
T1 construct: It may include the signal peptide; also called hIL-2; interleukin-2
The experiment in a line: SPR as in Example 1 (value as in Table 3). The procedure:
(§1) Experiments were performed at 25° C. using a 30 μL/minute flow rate in 0.01 M HEPES pH 7.4, 0.15 M NaCl and 0.005% v/v surfactant P20 (HBS-P) buffer. After each cycle, the chip surface was regenerated with 3 M MgCl₂ and new antibody captured. […] Data were analyzed using the Biacore T200 Evaluation software, the signal from the adjacent control flow cell with only the capture antibody immobilized was background subtracted along with buffer only injections for each antibody. A 1:1 Langmuir binding model was used to fit all binding curves.

Experiment [2] addresses T2, recombinant cynomolgus monkey (Macaca fascicularis) IL-2 (cynomolgus monkey (Macaca fascicularis), UniProt Q29615 21-154).
T2 construct: also called cyno IL-2; cynomolgus monkey IL-2
The experiment can be described thus: SPR, IgG captured, cyno IL-2 1-100 nM; 1:1 Langmuir fit or steady-state affinity. The procedure:
as §1
(§2) A 1:1 Langmuir binding model was used to fit binding curves or the steady-state affinity constant calculated from a concentration-response curve.

Experiment [3] deals with T1, human IL-2 (recombinant IL-2, Humanzyme). The experiment can be described thus: SPR (Biacore T200), IgG captured by anti-human IgG, IL-2 injected, 25 C, 1:1 Langmuir fit. Here is the method: as §1
In general terms: In SPR one partner is held on a chip, and binding of the other changes the refractive index at the surface.

The target is the same in experiment [4]. The experiment in a line: SPR as in Example 1 (IgG captured, IL-2 injected). The procedure: as §1
Experiment [5] concerns the target T2, recombinant cynomolgus monkey (Macaca …). The experiment can be described thus: SPR, IgG captured, cyno IL-2 1-100 nM; concentration-response insufficient to calculate the affinity. The procedure:
as §1, §2

Experiment [6] addresses T1, human IL-2 (recombinant IL-2, Humanzyme). The experiment can be described thus: method not stated in the sentence (presumably SPR as in Example 1).
Experiment [7] shares this target. The experiment in a line: SPR as in Example 1 (value as in Table 4). Here is the method: as §1
The target is the same in experiment [8]. The experiment can be described thus: SPR as in Example 1; reference is parental F5.1.11. The procedure: as §1
A further experiment addresses IL-2/F5.1.11 Fab complex (human, UniProt P60568 21-153). The experiment can be described thus: SPR (Biacore T200), equilibrium analysis, 1-500 nM IL-2 pre-complexed with excess Fab over biotinylated IL-2Rα. The procedure:
Experiments were performed at 25° C. using a 10 μL/minute flow rate in 10 mM HEPES (pH7.4), 150 mM NaCl and 0.005% v/v Surfactant P20 buffer. […] Data was background subtracted using the adjacent control flow cell and buffer only injections. The affinity of the interaction was calculated from concentration-response relationship at equilibrium.

For the next experiment, the target named is T3, d1C7/IL-2 complex (human, UniProt P60568 21-153).
T3 construct: also called clone d1C7/IL-2 complex
The experiment can be described thus: SPR (Biacore T200), complex injected over biotinylated receptor on a streptavidin chip. The procedure: Experiments were performed at 25° C. using a 10 μL/minute flow rate in 10 mM HEPES (pH 7.4), 150 mM NaCl and 0.005% v/v Surfactant P20 buffer. […] Data was background subtracted using the adjacent control flow cell and buffer only injections.

T1 sequence (P60568 21-153 limits assumed): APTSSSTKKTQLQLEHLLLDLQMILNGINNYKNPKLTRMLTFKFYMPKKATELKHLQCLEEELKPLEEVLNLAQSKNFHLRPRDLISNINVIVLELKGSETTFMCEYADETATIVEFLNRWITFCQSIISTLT
T2 sequence (Q29615 21-154 limits assumed): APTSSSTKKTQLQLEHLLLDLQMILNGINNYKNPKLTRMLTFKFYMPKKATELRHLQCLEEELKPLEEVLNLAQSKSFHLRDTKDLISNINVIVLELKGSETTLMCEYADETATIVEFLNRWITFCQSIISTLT
T3 sequence (P60568 21-153 limits assumed, one chain of several): as the sequence (P60568 21-153 limits assumed) above
IL-2/F5.1.11 Fab complex, sequence (P60568 21-153 limits assumed, one chain of several): as the sequence (P60568 21-153 limits assumed) above

B1: d1C7 (antibody, V domains shown)
VH: QVQLVQSGAEVKKPGSSVKVSCKASGGTFSSYAISWVRQAPGQGLEWMGGIIPIFGTANYAQKFQGRVTITADESTSTAYMELSSLRSEDTAVYYCARVDRYYNWNYFLGSFDYWGQGTLVTVSS
VL: SYVLTQPPSVSVAPGKTARITCGGNNIRSKSVHWYQQKPGQAPVVVIYYDSDRPSGIPERISGSNSGNTATLTISRVEAGDEADYFCQVWDSSSDHHVFGGGTKLTVL
notes: Only the variable domains are tied to the clone; also called clone d1C7
In general, Kd refers to the concentration at which binding is half-saturated. By koff is commonly meant the rate constant with which the complex falls apart. A word on the kon: it is the rate constant with which the complex forms. As for B1, the dissociation constant Kd in [1] came out at 0.536 nM. In experiment [2], the Kd was at least 108 nM. In experiment [3], the Kd was found to be 0.536 nM, the koff turned out to be 0.000607 s⁻¹ and the kon is 1.13e+06 M⁻¹ s⁻¹.

B2: F5.1.11 (antibody, V domains shown)
VH: QLQLQESGPGLVKPSQTLSLTCTVSGGSISSGGYYWSWIRQHPGKGLEWIGYIYYSGSTYYNPSLKSRVTISVDTSKNQFSLKLSSVTAADTAVYYCARTPTVTGDWFDPWGRGTLVTVSS
VL: NFMLTQPHSVSESPGKTVTISCTRSSGSIASNYVQWYQQRPGSSPTTVIYEDNQRPSGVPDRFSGSIDSSSNSASLTISGLKTEDEADYYCQSYDSSNVVFGGGTKLTVL
Regarding B2, the Kd in experiment [1] stood at 3.12 nM; in experiment [4], 1.88 nM; in experiment [3], 3.12 nM. The koff in [4] stood at 0.00711 s⁻¹; in experiment [3], 0.00688 s⁻¹. The association rate constant (kon) in [4] came to 3.78e+06 M⁻¹ s⁻¹; in experiment [3], 2.21e+06 M⁻¹ s⁻¹. In addition, the binding result in experiment [5] is recorded as “binds”.

B3: F4.7.062 (antibody, V domains shown)
VH: QVQLQESGPGLVKPSQTLSLTCTVSGGSISSGGYYWSWIRQHPGKGLEWIGYIYYSGSTYYNPSLKSRVTISVDTSKNQFSLKLSSVTAADTAVYYCARTPTVTGDWFDPWGQGTLVTVSS
VL: NFMLTQPHSVSESPGKTVTISCTRSSGSIASNYVQWYQQRPGSSPTTVIYEDNQRPSGVPDRFSGSIDSSSNSASLTISGLKTEDEADYYCQSYDSSNVVFGGGTKLTVL
B3: in [3], the Kd worked out at 1.54 nM, the koff stood at 0.0058 s⁻¹ and the kon was found to be 3.77e+06 M⁻¹ s⁻¹.

B4: F5.1.11.08 (antibody, V domains shown)
VH: QLQLQESGPGLVKPSQTLSLTCTVSGGSISSGGYYWSWIRQHPGKGLEWIGYIYKSGSNYWNPSLKSRVTISVDTSKNQFSLKLSSVTAADTAVYYCARTPTVTGDWFDPWGRGTLVTVSS
VL: NFMLTQPHSVSESPGKTVTISCTRSSGSIASNYVQWYQQRPGSSPTTVIYEDNQRPSGVPDRFSGSIDSSSNSASLTISGLKTEDEADYYCQTYDSIDVYFGGGTKLTVL
In the case of B4, in experiment [4], the Kd is 0.205 nM, the koff worked out at 0.000453 s⁻¹ and the kon came out at 2.21e+06 M⁻¹ s⁻¹.

B5: F4.7.6 (antibody, V domains shown)
VH: EVQLQESGPGLVKPSQTLSLTCTVSGGSISSGGYYWSWIRQHPGKGLEWIGYIYYSGSTYYNPSLKSRVTISVDTSKNQFSLKLSSVTAADTAVYYCARTPTVTGDWFDPWGQGTLVTVSS
VL: NFMLTQPHSVSESPGKTVTISCTRSSGSIASNYVQWYQQRPGSSPTTVIYEDNQRPSGVPDRFSGSIDSSSNSASLTISGLKTEDEADYYCQSYDSSTVVFGGGTKLTVL
Regarding B5, in experiment [3], the Kd was 3.03 nM, the koff was 0.00738 s⁻¹ and the kon was found to be 2.44e+06 M⁻¹ s⁻¹.

B6: F5.1.9.5 (antibody, V domains shown)
VH: EVQLVESGPGLVKPSETLSLTCAVSGYSISSGYYWGWIRQPPGKGLEWIGLSYHTRSTYYDPSLKSRVTISVDTSKNQFSLKLSSVTAADTAVYYCAREAYSDRAFDIWGQGTMVTVSS
VL: NFMLTQPHSVSESPGKTITISCTRSSGSIASDYVQWYQQRPGSSPSTVIYADNQRPSEVPDRFSGSIDSSSNSASLTISGLMTEDEADYYCQSYDSNIVIFGGGTKLTVL
With B6, in experiment [6], the Kd was 0.663 nM, the off-rate (koff) amounted to 0.000818 s⁻¹ and the kon turned out to be 1.23e+06 M⁻¹ s⁻¹.

B7: F5.1.11.02 (antibody, V domains shown)
VH: QLQLQESGPGLVKPSQTLSLTCTVSGGSISSGGYYWSWIRQHPGKGLEWIGYIYKSGSAYYSPSLKSRVTISVDTSKNQFSLKLSSVTAADTAVYYCARTPTVTGDWFDPWGRGTLVTVSS
VL: NFMLTQPHSVSESPGKTVTISCTRSSGSIASNYVQWYQQRPGSSPTTVIYEDNQRPSGVPDRFSGSIDSSSNSASLTISGLKTEDEADYYCQTYDSIDVYFGGGTKLTVL
notes: also called F5111.2; 5.1.11.2
On to B7, for which the Kd in [7] was 0.114 nM. Further, the “fold increase of apparent binding affinity over parental F5.1.11” value in experiment [8] amounted to 16 fold. For the same molecule, in experiment [4], the Kd came to 0.114 nM, the koff came to 0.000574 s⁻¹ and the kon is 5.05e+06 M⁻¹ s⁻¹. Moreover, the Kd in [2] is around 211 nM.

B8: F5.1.11.04 (antibody, V domains shown)
VH: QLQLQESGPGLVKPSQTLSLTCTVSGGSISSGGYYWSWIRQHPGKGLEWIGYIYYSGSNYWNPSLKSRVTISVDTSKNQFSLKLSSVTAADTAVYYCARTPTVTGDWFDPWGRGTLVTVSS
VL: NFMLTQPHSVSESPGKTVTISCTRSSGSIASNYVQWYQQRPGSSPTTVIYEDNQRPSGVPDRFSGSIDSSSNSASLTISGLKTEDEADYYCQSYDTRDVVFGGGTKLTVL
As for B8, in [4], the Kd worked out at 0.624 nM, the koff was 0.000458 s⁻¹ and the kon came out at 734000 M⁻¹ s⁻¹.

B9: recombinant IL-2Rα (receptor, UniProt P01589 22-213, looked up)
chain: ELCDDDPPEIPHATFKAMAYKEGTMLNCECKRGFRRIKSGSLYMLCTGNSSHSSWDNQCQCTSSATRNTTKQVTPQPEEQKERKTTEMQSPMQPVDQASLPGHCREPPPWENEATERIYHFVVGQMVYYQCVQGYRALHRGPAESVCKMTHGKTRWTQPQLICTGEMETSQFPGEEKPQASPEGRPESETSC
modifications: biotin labeled
notes: also called IL-2α; CD25
In the experiment with IL-2/F5.1.11 Fab complex, B9 had a Kd of 70.1 nM.

B10: 16C3 (antibody, V domains shown)
VH: QVQLVQSGGGVVQPGRSLRLSCAASGFTFSNYAMNWVRQAPGKGLEWVTLISYDGSQKYYADSVKGRFTTSRDNSKNTLYLQMNSLRAEDTAVYYCARDSTTLGAFDVWGQGTMVTVSS
VL: SYELTQPPSLSVSPGQTATISCSGDAFPRKFAYWYQQKSGQAPVLVIYEDTRRPSGIPERFSGSSSGTMATLTISGAQVEDEADYFCYSTDTTGTHRVFGGGTKLTVL
As for B10, the Kd came to 0.637 nM in [1], 0.516 nM in experiment [2] and 0.637 nM in experiment [3]. In addition, the koff in experiment [3] was 0.000619 s⁻¹. Moreover, the kon in experiment [3] came to 989000 M⁻¹ s⁻¹.

B11: F4.7.8 (antibody, V domains shown)
VH: not shown
VL: AIQLTQSPSSLSASVGDRVTITCQASQDIFNLLNWYRQKPGKAPDLLVYRASNLETGVPSRFSGSGSGTDFTFTISSLQPEDVGTYYCQQSANLPLTFGGGTKVEIK
notes: Only the variable domains are tied to the clone
On to B11, for which the figures for the dissociation constant Kd in [1], in experiment [2] and in experiment [3] were 13.4 nM, 92.4 nM and 13.4 nM, respectively. The koff in experiment [3] came to 0.0031 s⁻¹. The kon in experiment [3] turned out to be 231000 M⁻¹ s⁻¹.

B12: recombinant IL-2Rβ (receptor, UniProt P14784 27-239, looked up)
chain: AVNGTSQFTCFYNSRANISCVWSQDGALQDTSCQVHAWPDRRRWNQTCELLPVSQASWACNLILGAPDSQKLTTVDIVTLRVLCREGVRWRVMAIQDFKPFENLRLMAPISLQVVHVETHRCNISWEISQASHYFERHLEFEARTLSPGHTWEEAPLLTLKQKQEWICLETLTPDTQYEFQVRVKPLQGEFTTWSPWSQPLAFRTKPAALGKD
modifications: biotin labeled
notes: also called CD122; IL2Rb
For B12, the binding result with d1C7/IL-2 complex is “no binding”.
